According to patent US6303653:

System: HNF-4alpha (transfected expression vector)
Test: cell_activity
Conditions: COS-7 cotransfection, no added fatty acids

Substance: one to three C3P copies enhancing TK promoter CAT reporter
- activity (fold activation): 7
